Measured values taken from doi:10.1101/2025.05.20.655083 (2025).
Where no end group is shown, it is not given here. The star is where a group is joined. FITC = O=C1OC2(c3ccc(O)cc3Oc3cc(O)ccc32)c2ccc(NC(=S)*)cc21; Ahx = NCCCCCC(=O)O

Tests used:
Assay in all cases: FP
[1] = target: human importin α7 ΔIBB (human)
[2] = target: human importin α1 ΔIBB (human)
[3] = target: human importin α5 ΔIBB (human)
[4] = target: mouse importin α2 ΔIBB (mouse, UniProt P52293 70-529)

human importin α7 ΔIBB (human), sequence (chain, as listed by the source mutant): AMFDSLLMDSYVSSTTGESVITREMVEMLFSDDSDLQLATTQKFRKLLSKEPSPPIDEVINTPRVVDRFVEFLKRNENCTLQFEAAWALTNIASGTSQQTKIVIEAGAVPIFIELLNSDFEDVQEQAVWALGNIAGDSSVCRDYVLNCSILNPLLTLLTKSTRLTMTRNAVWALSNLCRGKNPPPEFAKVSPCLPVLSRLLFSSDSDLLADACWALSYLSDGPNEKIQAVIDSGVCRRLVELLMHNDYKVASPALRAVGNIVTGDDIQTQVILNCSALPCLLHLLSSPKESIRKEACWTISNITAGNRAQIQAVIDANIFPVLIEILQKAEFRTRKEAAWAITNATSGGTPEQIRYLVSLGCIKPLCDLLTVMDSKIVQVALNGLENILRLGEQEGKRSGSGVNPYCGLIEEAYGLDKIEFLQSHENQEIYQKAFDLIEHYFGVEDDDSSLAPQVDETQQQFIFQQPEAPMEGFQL
human importin α5 ΔIBB (human), sequence (chain, as listed by the source mutant): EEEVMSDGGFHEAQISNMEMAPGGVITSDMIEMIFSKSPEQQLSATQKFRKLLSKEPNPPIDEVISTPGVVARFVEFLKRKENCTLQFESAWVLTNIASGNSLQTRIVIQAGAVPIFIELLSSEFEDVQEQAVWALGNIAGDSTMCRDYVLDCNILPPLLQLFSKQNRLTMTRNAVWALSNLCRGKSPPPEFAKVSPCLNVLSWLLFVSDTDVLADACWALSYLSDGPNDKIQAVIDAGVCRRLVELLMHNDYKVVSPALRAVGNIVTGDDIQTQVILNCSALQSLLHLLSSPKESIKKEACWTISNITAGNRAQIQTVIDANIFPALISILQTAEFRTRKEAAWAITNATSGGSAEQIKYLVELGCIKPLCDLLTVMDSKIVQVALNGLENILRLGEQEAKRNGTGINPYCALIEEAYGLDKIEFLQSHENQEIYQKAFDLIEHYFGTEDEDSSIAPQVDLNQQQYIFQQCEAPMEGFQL

B1: BSB PyV-LTA;NLS peptide (Black Sea Bass polyomavirus large tumor antigen residues 660-683) (peptide)
peptide: {FITC-Ahx}-IAEYKRRHNIGSDGLPNKRRRCLF
Kd [1]: 2 nM | Kd [2]: 31 nM | Kd [3]: 12 nM | Kd [4]: 4 nM
